# Data: patent US20220389097A1 (Genentech, published 2022)
# T1: human TREM2-Fc (human, UniProt Q9NZC2 19-174)
# T1 construct: also called hTREM2; not shown: Fc part (captured by anti-human IgG1 Fc or protein A)
# T1 sequence: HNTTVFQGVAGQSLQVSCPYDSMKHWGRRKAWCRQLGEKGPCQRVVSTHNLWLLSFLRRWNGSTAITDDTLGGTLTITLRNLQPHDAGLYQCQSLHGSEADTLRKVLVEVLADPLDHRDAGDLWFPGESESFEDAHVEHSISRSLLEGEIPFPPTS
# T2: cynomolgus TREM2-Fc (cynomolgus monkey, UniProt A0A2K5UY34 49-204)
# T2 construct: also called cyno TREM2; not shown: Fc part
# T2 sequence: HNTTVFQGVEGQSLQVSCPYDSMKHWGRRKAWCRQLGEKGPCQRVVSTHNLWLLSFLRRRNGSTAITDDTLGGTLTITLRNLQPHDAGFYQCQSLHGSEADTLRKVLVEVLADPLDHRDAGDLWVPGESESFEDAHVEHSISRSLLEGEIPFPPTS
# T3: human TREM2 on cells (human, UniProt Q9NZC2 19-230)
# T3 sequence: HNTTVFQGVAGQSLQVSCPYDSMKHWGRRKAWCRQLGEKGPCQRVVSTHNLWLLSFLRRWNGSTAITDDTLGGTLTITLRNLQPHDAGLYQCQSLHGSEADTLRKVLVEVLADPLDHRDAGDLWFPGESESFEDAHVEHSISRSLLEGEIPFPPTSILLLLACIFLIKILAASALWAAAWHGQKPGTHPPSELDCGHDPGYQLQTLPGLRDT
# T4: soluble monomeric human TREM2 (human, UniProt Q9NZC2 19-174, limits assumed)
# T4 construct: Not the same as shed sTREM2; also called soluble monomeric TREM2
# T4 sequence: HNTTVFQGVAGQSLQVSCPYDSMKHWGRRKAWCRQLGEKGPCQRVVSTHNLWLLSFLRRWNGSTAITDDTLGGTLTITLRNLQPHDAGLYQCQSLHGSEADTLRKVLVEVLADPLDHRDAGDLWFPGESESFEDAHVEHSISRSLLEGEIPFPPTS
# Columns and labels:
# human TREM2-Fc [1] = molecular target: T1, human TREM2-Fc; experiment: SPR (Biacore T200), 37 C; TREM2-Fc on protein A chip, soluble Fab
# Experimental: (§1) Affinity of h3.10C2.v1 (FIGS. 9A-B) for human and cynomolgus TREM2 was determined by SPR in a Biacore™ T200 apparatus in two formats, both at 37° C. In one format TREM2-Fc was immobilized on protein A chips and soluble anti-TREM2 Fab fragments used as ligands. In the second format, anti-TREM2 IgG was immobilized on anti-CH1 Biacore™ chips and used soluble monomeric TREM2 as ligand.
# cynomolgus TREM2-Fc [2] = molecular target: T2, cynomolgus TREM2-Fc; experiment: as above
# Experimental: as §1
# human TREM2-Fc [3] = molecular target: T1, human TREM2-Fc; experiment: SPR (Biacore T200), 37 C; TREM2-Fc on anti-human IgG1 Fc chip, Fab in solution
# Experimental: (§2) Briefly, clone variants were expressed as Fab fragments and purified by anti-CH1 affinity chromatography followed by size exclusion chromatography. TREM2-Fc antigens were immobilized on anti-human IgG1 Fc Biacore™ chips and soluble Para.09 variant and 3.10C2 clone Fab fragments were bound to immobilized TREM2 at 37° C.
# cynomolgus TREM2-Fc [4] = molecular target: T2, cynomolgus TREM2-Fc; experiment: as above
# Experimental: as §2
# human TREM2 on cells [5] = molecular target: T3, human TREM2 on cells; experiment: cell-based or functional assay
# human TREM2 on cells [6] = molecular target: T3, human TREM2 on cells; experiment: cell-based or functional assay; remark: listed apart in the source
# [7] = molecular target: T4, soluble monomeric human TREM2; experiment: SPR (Biacore T200), 37 C; IgG on anti-CH1 chip, soluble monomeric TREM2
binder,measurement,setting,value
"Para.09 Fab with the 3.27H7 light chain (Fab, V domains shown, Fab fragment; also called Para.09 (3.27H7); Para.09-L27H7) VH: EVQLVETGGSLVQPGKSLRLTCATSGFPFSNVWLHWVRQSPEKHPEWVAHIKAKSDNYATYYAESVKGRFTISRDDSKSSVFLQMNSLKEEDTAIYYCTDILEYWGQGTLVTVSS VL: DVVLTQAPLSVSVTPGESASISCRSSRSLLTSKGITSLYWYLQKPGMSPHLLIYRMSNLASGIPDRFSGSGSETDFTLKISEVEPEDVGVYYCAQFLVYPYTFGAGTKLELK",Kd,human TREM2-Fc [1],0.015 nM
same,koff,human TREM2-Fc [1],3.5e-05 s⁻¹
same,kon,human TREM2-Fc [1],2.3e+06 M⁻¹ s⁻¹
same,Kd,cynomolgus TREM2-Fc [2],0.018 nM
same,koff,cynomolgus TREM2-Fc [2],4.1e-05 s⁻¹
same,kon,cynomolgus TREM2-Fc [2],2.3e+06 M⁻¹ s⁻¹
same,Kd,human TREM2-Fc [3],0.0042 nM
same,koff,human TREM2-Fc [3],2.7e-05 s⁻¹
same,kon,human TREM2-Fc [3],6.3e+06 M⁻¹ s⁻¹
same,Kd,cynomolgus TREM2-Fc [4],0.0025 nM
same,koff,cynomolgus TREM2-Fc [4],1.2e-05 s⁻¹
same,kon,cynomolgus TREM2-Fc [4],4.8e+06 M⁻¹ s⁻¹
"Para.09 Fab with the 3.18E5 light chain (Fab, V domains shown, also called Para.09 (3.18E5)) VH: EVQLVETGGSLVQPGKSLRLTCATSGFPFSNVWLHWVRQSPEKHPEWVAHIKAKSDNYATYYAESVKGRFTISRDDSKSSVFLQMNSLKEEDTAIYYCTDILEYWGQGTLVTVSS VL: DTVLTQAPLSVSVTPGESASISCRSNKSLLGIRDITSLYWYLQKPGKSPQLLIYRMSNLASGVPDRFSGSGSETDFTLKISEVETEDVGVYYCAQFLRYPYTFGPGTKLELK",Kd,human TREM2-Fc [3],0.005 nM
same,koff,human TREM2-Fc [3],2.8e-05 s⁻¹
same,kon,human TREM2-Fc [3],5.6e+06 M⁻¹ s⁻¹
same,Kd,cynomolgus TREM2-Fc [4],0.0024 nM
same,koff,cynomolgus TREM2-Fc [4],8.9e-06 s⁻¹
same,kon,cynomolgus TREM2-Fc [4],3.8e+06 M⁻¹ s⁻¹
"Para.09 Fab with the 3.10C2 light chain (Fab, V domains shown, also called Para.09 (3.10C2)) VH: EVQLVETGGSLVQPGKSLRLTCATSGFPFSNVWLHWVRQSPEKHPEWVAHIKAKSDNYATYYAESVKGRFTISRDDSKSSVFLQMNSLKEEDTAIYYCTDILEYWGQGTLVTVSS VL: DTVLTQAPLSLSVTPGESASISCRSSKSLLGVRDITSLYWYLQKPGKSPQLLIYRMSNLASGVPDRFSGSGSETDFTLKISEVETEDVGVYYCAQFLRYPYTFGPGTKLELK",Kd,human TREM2-Fc [3],0.0038 nM
same,koff,human TREM2-Fc [3],2.7e-05 s⁻¹
same,kon,human TREM2-Fc [3],7.1e+06 M⁻¹ s⁻¹
same,Kd,cynomolgus TREM2-Fc [4],0.0016 nM
same,koff,cynomolgus TREM2-Fc [4],7.8e-06 s⁻¹
same,kon,cynomolgus TREM2-Fc [4],4.8e+06 M⁻¹ s⁻¹
"Para.09 Fab with the 3.50G1 light chain (Fab, V domains shown, also called Para.09 (3.50G1)) VH: EVQLVETGGSLVQPGKSLRLTCATSGFPFSNVWLHWVRQSPEKHPEWVAHIKAKSDNYATYYAESVKGRFTISRDDSKSSVFLQMNSLKEEDTAIYYCTDILEYWGQGTLVTVSS VL: DTVLTQAPLSVSVTPGESASISCRSNKSLLGIRDITSLYWFLQKPGKSPQLLIYRMSNLASGVPDRFSGSGSETDFTLKISEVETEDVGVYYCAQFLRYPYTFGPGTKLELQ",Kd,human TREM2-Fc [3],0.0011 nM
same,koff,human TREM2-Fc [3],5.8e-06 s⁻¹
same,kon,human TREM2-Fc [3],5.1e+06 M⁻¹ s⁻¹
same,Kd,cynomolgus TREM2-Fc [4],0.002 nM
same,koff,cynomolgus TREM2-Fc [4],7.9e-06 s⁻¹
same,kon,cynomolgus TREM2-Fc [4],3.9e+06 M⁻¹ s⁻¹
"hPara.09.v2 Q100P/V104L (antibody, human IgG1, V domains shown) VH: EVQLVESGGGLVQPGGSLKLSCATSGFPFSNVWLHWVRQASGKGPEWVAHIKAKSDNYATYYAESVKGRFTISRDDSKNTVYLQMNSLKTEDTAVYYCTDILEYWGQGTLVTVSS VL: DVVMTQSPLSLPVTPGEPASISCRSSRSLLTSKGITSLYWYLQKPGQSPQLLIYRMSNLASGIPDRFSGSGSGTDFTLKISRVEAEDVGVYYCAQFLVYPYTFGPGTKLEIK","EC50, average X04 plaque intensity, human iPSC-derived microglia plaque assay (FIG. 24C)",human TREM2 on cells [5],40 nM
same,"EC50, survival of iPSC-derived microglia (FIG. 23E)",human TREM2 on cells [5],0.19 nM
same,"EC50, total Abeta plaque intensity, human iPSC-derived microglia plaque assay (FIG. 24B)",human TREM2 on cells [5],770 nM
same,"phospho-SYK/total SYK relative to anti-gD control, iPSC-derived microglia, 1 hour",human TREM2 on cells [5],2 fold
same,"phospho-SYK/total SYK relative to anti-gD control, iPSC-derived microglia, 4 hours",human TREM2 on cells [5],> 10 fold
same,"EC50, Jurkat NFAT luciferase reporter cells",human TREM2 on cells [6],0.0232 µg/mL
same,"IC50, TREM2 shedding inhibition in Jurkat-NFAT reporter cells (sTREM2 ELISA)",human TREM2 on cells [6],0.114 µg/mL
"hPara.09.v2 Fab (Fab, V domains shown, also called Para.09-H5/3.27H7-L6) VH: EVQLVESGGGLVQPGGSLKLSCATSGFPFSNVWLHWVRQASGKGPEWVAHIKAKSDNYATYYAESVKGRFTISRDDSKNTVYLQMNSLKTEDTAVYYCTDILEYWGQGTLVTVSS VL: DVVMTQSPLSLPVTPGEPASISCRSSRSLLTSKGITSLYWYLQKPGQSPQLLIYRMSNLASGIPDRFSGSGSGTDFTLKISRVEAEDVGVYYCAQFLVYPYTFGQGTKVEIK",Kd,human TREM2-Fc [1],0.021 nM
same,koff,human TREM2-Fc [1],6.1e-05 s⁻¹
same,kon,human TREM2-Fc [1],3e+06 M⁻¹ s⁻¹
same,Kd,cynomolgus TREM2-Fc [2],0.022 nM
same,koff,cynomolgus TREM2-Fc [2],6.3e-05 s⁻¹
same,kon,cynomolgus TREM2-Fc [2],2.9e+06 M⁻¹ s⁻¹
"h3.10C2.v1 hIgG1 N297G (antibody, V domains shown, Human IgG1 N297G; also called h3.10C2.v1.huIgG1.N297G) VH: EVQLVESGGGLVQPGGSLKLSCATSGFPFSNVWMHWVRQASGKGLEWIAHIKAKSDNYATYYAESVKGRFTISRDDSKTTIYLQMNSLKTEDTAVYYCTGLDYWGQGTTVTVSS VL: DVVMTQSPLSLPVTPGEPASISCRSSRSLLTSKGITSLYWYLQKPGQSPQLLIYRMSNLASGVPDRFSGSGSGTDFTLKISRVEAEDVGVYYCAQFLVYPYTFGQGTKVEIK",Kd,[7],0.42 nM
same,koff,[7],0.00035 s⁻¹
same,kon,[7],840000 M⁻¹ s⁻¹
same,"EC50, average X04 plaque intensity, human iPSC-derived microglia plaque assay (FIG. 24C)",human TREM2 on cells [5],11 nM
same,"EC50, survival of iPSC-derived microglia (FIG. 23E)",human TREM2 on cells [5],0.35 nM
same,"EC50, total Abeta plaque intensity, human iPSC-derived microglia plaque assay (FIG. 24B)",human TREM2 on cells [5],130 nM
same,"EC50, Jurkat NFAT luciferase reporter cells",human TREM2 on cells [6],0.076 µg/mL
same,"IC50, TREM2 shedding inhibition in Jurkat-NFAT reporter cells (sTREM2 ELISA)",human TREM2 on cells [6],0.975 µg/mL
